B1: mAb1, caninized anti-IL31 antibody 34D03, canine IgGA, N434W (antibody)
heavy: EVQLVESGGDLVKPGGSLRLSCVASGFTFSNYGMSWVRQAPGKGLQWVATISYGGSYTYYPDNIKGRFTISRDNAKNTLYLQMNSLRAEDTAMYYCVRGYGYDTMDYWGQGTLVTVSSASTTAPSVFPLAPSCGSTSGSTVALACLVSGYFPEPVTVSWNSGSLTSGVHTFPSVLQSSGLHSLSSMVTVPSSRWPSETFTCNVVHPASNTKVDKPVFNECRCTDTPPCPVPEPLGGPSVLIFPPKPKDILRITRTPEVTCVVLDLGREDPEVQISWFVDGKEVHTAKTQSREQQFNGTYRVVSVLPIEHQDWLTGKEFKCRVNHIDLPSPIERTISKARGRAHKPSVYVLPPSPKELSSSDTVSITCLIKDFYPPDIDVEWQSNGQQEPERKHRMTPPQLDEDGSYFLYSKLSVDKSRWQQGDPFTCAVMHETLQWHYTDLSLSHSPGK
light: EIVMTQSPASLSLSQEEKVTITCKASQSVSFAGTGLMHWYQQKPGQAPKLLIYRASNLEAGVPSRFSGSGSGTDFSFTISSLEPEDVAVYYCQQSREYPWTFGQGTKLEIKRNDAQPAVYLFQPSPDQLHTGSASVVCLLNSFYPKDINVKWKVDGVIQDTGIQESVTEQDKDSTYSLSSTLTMSSTEYLSHELYSCEITHKSLPSTLIKSFQRSEC
notes: VH/VL: the caninized 34D03 entries of the listing; also called ID No. 6; copies: 2 + 2
B2: mAb1, caninized anti-IL31 antibody 34D03, canine IgGD, N434H (antibody)
chain 1: EVQLVESGGDLVKPGGSLRLSCVASGFTFSNYGMSWVRQAPGKGLQWVATISYGGSYTYYPDNIKGRFTISRDNAKNTLYLQMNSLRAEDTAMYYCVRGYGYDTMDYWGQGTLVTVSSASTTAPSVFPLAPSCGSTSGSTVALACLVSGYFPEPVTVSWNSGSLTSGVHTFPSVLQSSGLYSLSSTVTVPSSRWPSETFTCNVVHPASNTKVDKPVPKESTCKCISPCPVPESLGGPSVFIFPPKPKDILRITRTPEITCVVLDLGREDPEVQISWFVDGKEVHTAKTQPREQQFNSTYRVVSVLPIEHQDWLTGKEFKCRVNHIGLPSPIERTISKARGQAHQPSVYVLPPSPKELSSSDTVTLTCLIKDFFPPEIDVEWQSNGQPEPESKYHTTAPQLDEDGSYFLYSKLSVDKSRWQQGDTFTCAVMHEALQHHYTDLSLSHSPGK
chain 2: B1 light
B3: mAb1, caninized anti-IL31 antibody 34D03, canine IgGC, N434H (antibody)
chain 1: EVQLVESGGDLVKPGGSLRLSCVASGFTFSNYGMSWVRQAPGKGLQWVATISYGGSYTYYPDNIKGRFTISRDNAKNTLYLQMNSLRAEDTAMYYCVRGYGYDTMDYWGQGTLVTVSSASTTAPSVFPLAPSCGSQSGSTVALACLVSGYIPEPVTVSWNSVSLTSGVHTFPSVLQSSGLYSLSSMVTVPSSRWPSETFTCNVAHPATNTKVDKPVAKECECKCNCNNCPCPGCGLLGGPSVFIFPPKPKDILVTARTPTVTCVVVDLDPENPEVQISWFVDSKQVQTANTQPREEQSNGTYRVVSVLPIGHQDWLSGKQFKCKVNNKALPSPIEEIISKTPGQAHQPNVYVLPPSRDEMSKNTVTLTCLVKDFFPPEIDVEWQSNGQQEPESKYRMTPPQLDEDGSYFLYSKLSVDKSRWQRGDTFICAVMHEALHHHYTQISLSHSPGK
chain 2: B1 light
B4: mAb2 of Table 4A, caninized anti-NGF antibody ZTS-841, canine IgGB, WT (antibody)
heavy: EVQLVESGGDLVKPGGSLRLSCVASGFTFSSHGMHWVRQSPGKGLQWVAVINSGGSSTYYTDAVKGRFTISRDNAKNTVYLQMNSLRAEDTAMYYCAKESVGGWEQLVGPHFDYWGQGTLVIVSSASTTAPSVFPLAPSCGSTSGSTVALACLVSGYFPEPVTVSWNSGSLTSGVHTFPSVLQSSGLYSLSSMVTVPSSRWPSETFTCNVAHPASKTKVDKPVPKRENGRVPRPPDCPKCPAPEMLGGPSVFIFPPKPKDTLLIARTPEVTCVVVDLDPEDPEVQISWFVDGKQMQTAKTQPREEQFNGTYRVVSVLPIGHQDWLKGKQFTCKVNNKALPSPIERTISKARGQAHQPSVYVLPPSREELSKNTVSLTCLIKDFFPPDIDVEWQSNGQQEPESKYRTTPPQLDEDGSYFLYSKLSVDKSRWQRGDTFICAVMHEALHNHYTQESLSHSPGK
VL: QSVLTQPTSVSGSLGQRVTISCSGSTNNIGILGASWYQLFPGKAPKLLVYGNGNRPSGVPDRFSGADSGDSVTLTITGLQAEDEADYYCQSFDTTLGAHVFGGGTHLTVL
notes: also called ID No. 46
B5: mAb2 of Table 4A, caninized anti-NGF antibody ZTS-841, canine IgGB, N434G (antibody)
heavy: B4 heavy with N447G
VL: B4 VL
notes: also called ID No. 49
B6: mAb2 of Table 4A, caninized anti-NGF antibody ZTS-841, canine IgGD, WT (antibody)
heavy: EVQLVESGGDLVKPGGSLRLSCVASGFTFSSHGMHWVRQSPGKGLQWVAVINSGGSSTYYTDAVKGRFTISRDNAKNTVYLQMNSLRAEDTAMYYCAKESVGGWEQLVGPHFDYWGQGTLVIVSSASTTAPSVFPLAPSCGSTSGSTVALACLVSGYFPEPVTVSWNSGSLTSGVHTFPSVLQSSGLYSLSSTVTVPSSRWPSETFTCNVVHPASNTKVDKPVPKESTCKCISPCPVPESLGGPSVFIFPPKPKDILRITRTPEITCVVLDLGREDPEVQISWFVDGKEVHTAKTQPREQQFNSTYRVVSVLPIEHQDWLTGKEFKCRVNHIGLPSPIERTISKARGQAHQPSVYVLPPSPKELSSSDTVTLTCLIKDFFPPEIDVEWQSNGQPEPESKYHTTAPQLDEDGSYFLYSKLSVDKSRWQQGDTFTCAVMHEALQNHYTDLSLSHSPGK
VL: B4 VL
notes: also called ID No. 55
B7: mAb2 of Table 4A, caninized anti-NGF antibody ZTS-841, canine IgGB, N434F (antibody)
heavy: B4 heavy with N447F
VL: B4 VL
notes: also called ID No. 48
B8: mAb2 of Table 4A, caninized anti-NGF antibody ZTS-841, canine IgGC, WT (antibody)
heavy: EVQLVESGGDLVKPGGSLRLSCVASGFTFSSHGMHWVRQSPGKGLQWVAVINSGGSSTYYTDAVKGRFTISRDNAKNTVYLQMNSLRAEDTAMYYCAKESVGGWEQLVGPHFDYWGQGTLVIVSSASTTAPSVFPLAPSCGSQSGSTVALACLVSGYIPEPVTVSWNSVSLTSGVHTFPSVLQSSGLYSLSSMVTVPSSRWPSETFTCNVAHPATNTKVDKPVAKECECKCNCNNCPCPGCGLLGGPSVFIFPPKPKDILVTARTPTVTCVVVDLDPENPEVQISWFVDSKQVQTANTQPREEQSNGTYRVVSVLPIGHQDWLSGKQFKCKVNNKALPSPIEEIISKTPGQAHQPNVYVLPPSRDEMSKNTVTLTCLVKDFFPPEIDVEWQSNGQQEPESKYRMTPPQLDEDGSYFLYSKLSVDKSRWQRGDTFICAVMHEALHNHYTQISLSHSPGK
VL: B4 VL
notes: also called ID No. 53
B9: mAb2 of Table 4A, caninized anti-NGF antibody ZTS-841, canine IgGC, N434H (antibody)
heavy: B8 heavy with N445H
VL: B4 VL
notes: also called ID No. 54
B10: mAb2 of Table 4A, caninized anti-NGF antibody ZTS-841, canine IgGB, N434L (antibody)
heavy: B4 heavy with N447L
VL: B4 VL
notes: also called ID No. 52
B11: mAb2 of Table 4A, caninized anti-NGF antibody ZTS-841, canine IgGB, N434A (antibody)
heavy: B4 heavy with N447A
VL: B4 VL
notes: also called ID No. 47
B12: mAb1, caninized anti-IL31 antibody 34D03, canine IgGC, WT (antibody)
heavy: B3 chain 1 with H438N
VL: EIVMTQSPASLSLSQEEKVTITCKASQSVSFAGTGLMHWYQQKPGQAPKLLIYRASNLEAGVPSRFSGSGSGTDFSFTISSLEPEDVAVYYCQQSREYPWTFGQGTKLEIK
notes: VH/VL: the caninized 34D03 entries of the listing; also called ID No. 35
B13: mAb1, caninized anti-IL31 antibody 34D03, canine IgGD, WT (antibody)
heavy: B2 chain 1 with H436N
VL: B12 VL
notes: VH/VL: the caninized 34D03 entries of the listing; also called ID No. 37

Residue numbers refer to the chain shown, from its start. In names and notes the source's numbering stands.

Sequence of canine FcRn complex (FcRn-α subunit and β-microglobulin) (A0A8I3PFR8 entry or part of it, one chain of several): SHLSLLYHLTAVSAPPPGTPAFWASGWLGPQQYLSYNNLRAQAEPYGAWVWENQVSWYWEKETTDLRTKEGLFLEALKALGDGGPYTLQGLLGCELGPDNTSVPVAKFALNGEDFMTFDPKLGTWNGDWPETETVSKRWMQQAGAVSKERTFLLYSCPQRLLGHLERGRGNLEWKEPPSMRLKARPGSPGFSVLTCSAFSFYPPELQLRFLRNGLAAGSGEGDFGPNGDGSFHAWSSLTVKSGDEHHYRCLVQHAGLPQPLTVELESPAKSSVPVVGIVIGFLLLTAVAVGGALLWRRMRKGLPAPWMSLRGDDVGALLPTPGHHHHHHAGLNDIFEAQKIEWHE

The test has as its target canine FcRn complex (FcRn-α subunit and β-microglobulin) (canine, UniProt A0A8I3PFR8 25-347, biotin on the BAP tag by BirA (Example 5 only)). Description: SPR (Biacore), biotinylated FcRn on SA chip, IgG flowed, pH 6, 15 C. (SPR reads the build-up and loss of mass on a sensor chip optically.)
One may read the Kd as a measure of binding affinity in units of concentration. Low readings indicate a tighter complex, high ones a looser complex. The molecule B1 came in with a Kd of 19.9 nM.
B2 returned a Kd of 3.21 nM.
In turn, B3 gave an equilibrium dissociation constant (Kd) of 87.9 nM.
Molecule B4 yielded a Kd of 91.5 nM.
B5 came in with a Kd of 34.3 nM.
Then B6, with 71 nM; and B7, with 1.92 nM; and B8, with 52 nM.
In turn, B9 returned a Kd of 20.4 nM.
For B10 the value was 1.83 nM.
B11 gave a Kd of 9.81 nM.
The molecule B12 gave a Kd of 100 nM.
Then B13, with 34.5 nM.

(Values after patent US20260193342A1 (ZOETIS SERVICES, published 2026).)
